Data taken from the supplement of paper PMC10567573.

B1: SLC6A17 (parent)
chain: HMFTPKLDKMLDPQVWREAATQVF

Variants of: B1
Experiment: protein stability index of a GFP-peptide fusion (GPS, HEK-293T) (PSI 1-6); higher = more stable
Details: c terminus: a fixed tail appended
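Also: lentivirally expressed fusions sorted by FACS into six bins by GFP to DsRed ratio, PSI derived from sequencing read proportions per bin multiplied by bin number.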

Protein stability index of substitutions, site by site:
H1: E 2.17 | C 1.56 | D 2.3 | N 1.56 | A 2.73 | F 2.13 | S 2.06 | K 1.5 | P 2.72 | Q 2.29 | Y 1.79 | T 1.46 | R 1.98 | V 2.51 | M 2.74 | L 1.88 | G 1.79
A19: G 1.63 | E 1.96 | C 3.43 | H 2.14 | F 2.03 | D 2.21
W16: Y 2.62 | I 2.33 | L 2.34 | K 2.94 | M 2.14 | A 2.47 | D 3.83 | G 3.27 | P 3.78 | E 3.76 | F 2.47 | N 3.2 | Q 3.06 | V 2.59 | R 3.72 | T 3.05 | C 2.75 | S 2.87 | H 3.88
Q14: L 2.14 | R 1.94 | T 2.23 | V 2.51 | K 2.26 | W 1.69 | F 2.13 | G 1.56 | H 1.74 | N 2.23 | M 2.06 | A 1.73 | E 2.41 | S 1.59 | Y 2.03 | I 1.12 | P 1.63
P13: V 2.11 | I 1.29 | N 2.4 | A 2 | K 2.34 | S 1.93 | D 1.79 | C 1.82 | L 1.86 | H 1.54 | M 2.33 | T 1.76 | E 2.4 | W 1 | Y 1.69 | Q 2.19 | F 1.67
D12: G 1.3 | E 1.39 | M 1.42 | C 2.67 | H 1.66 | Q 2.2 | P 1.91 | Y 1.34 | F 1.63 | S 1.98 | W 2.8 | K 1.63 | T 2.45 | I 1.79 | R 1.81 | N 1.34 | A 1.98 | V 1.32
F3: M 1.81 | T 2.01 | S 2.27 | N 2.86 | H 2.17 | P 2.65 | E 3.49 | C 2.25 | V 2.7 | A 2.2 | W 2.07 | R 2.4 | L 1.99 | Y 2.6 | D 2.69 | I 2.45 | Q 2.17 | K 1.98 | G 1.91
T4: D 1.76 | Q 1.8 | S 2.67 | N 1.39 | E 2.31 | R 2.39 | H 1.79 | C 2.49 | A 2.4 | G 2.1 | P 2.07 | W 2.21 | L 2.69 | K 1.67 | Y 2.11 | F 1.9 | M 2.97 | I 1.45
V15: I 1.35 | T 2.66 | G 1.96 | D 2.96 | E 2.84 | F 2.22 | H 2.34 | M 1.63 | W 2.24 | P 2.81 | K 2.39 | Y 2.12 | R 3.24 | L 2.37 | A 2.38 | C 2.12 | Q 1.89 | S 2.15 | N 1.9
L7: S 2.02 | P 2.1 | A 1.94 | F 1.8 | R 1.89 | I 1.4 | D 2.55 | V 1.79 | H 1.79 | C 1.86 | E 2.86 | T 2.27 | K 2.73 | N 1.99 | G 2.24 | M 2.38 | W 1.62 | Q 2.55 | Y 1.46
K6: S 1.89 | D 2.67 | T 1.74 | F 1.65 | N 2.11 | L 2.1 | H 1.83 | E 1.74 | G 1.8 | Y 2.85 | C 1.98 | I 1.7 | P 2.01 | M 1.62 | R 1.76 | A 1.99 | W 2.1 | V 1.24 | Q 1.51
P5: E 2.4 | L 1.55 | Q 2.49 | C 1.53 | I 3.2 | H 1.85 | M 1.03 | T 1.53 | A 2.46 | W 1.3 | K 1.69 | D 2.61 | R 1.78 | Y 2.08 | S 2.09 | G 1.61 | V 1.69
M2: D 2.34 | R 2.56 | P 2.36 | A 1.9 | L 1.71 | N 2.43 | G 1.92 | S 2.03 | W 1.81 | V 1.62 | Q 2.52 | H 2.49 | I 2.53 | E 2.49 | Y 2.84 | T 2.14 | C 2.01 | F 1.65 | K 2.13
R17: E 2.3 | T 1.82 | S 2.8 | V 2.18 | G 2 | F 1.27 | P 1.89 | C 1.39 | D 2.46 | I 2.08 | L 3.05 | W 1.6 | Y 1.18 | H 1.74 | Q 1.84 | M 2.42 | A 1.36 | N 2.26 | K 1.11
L11: P 2.16 | A 1.55 | N 2.29 | C 2.17 | S 2.18 | D 1.87 | G 2.9 | K 2.24 | W 1.63 | H 2.23 | I 2.39 | T 2.18 | M 2.05 | V 1.87 | Y 2.43 | F 2.33 | R 3.13 | Q 2.35
M10: G 2.15 | I 1.74 | N 1.99 | T 1.66 | Y 2.23 | R 1.78 | Q 2.78 | H 1.42 | P 2.4 | V 1.85 | F 2.59 | S 2.17 | W 2.05 | D 2.63 | C 2.31 | K 1.78 | E 2.57 | L 3.08
E18: Q 2.22 | Y 1.75 | D 1.87 | K 1.08 | C 1.29 | T 1.79 | S 1.99 | H 1.91 | V 2.37 | R 3.18 | L 1.38 | M 1.52 | G 1.02 | I 1.97 | P 1.86 | F 1.85 | N 2.3 | A 2.04
K9: M 2.03 | G 1.25 | D 2.63 | A 1.21 | E 1.58 | P 3.02 | W 2.95 | Q 1.92 | S 1.53 | T 2.1 | R 2.42 | L 1.83 | V 1.5 | H 2.94 | Y 1.33 | I 1.66 | N 2.04 | F 1.52
D8: Q 1.87 | C 1.67 | V 1.34 | A 1.82 | K 2.79 | F 2.81 | Y 2 | I 1.65 | R 3.33 | N 2.33 | E 1.5 | G 2.06 | P 3.01 | S 2.3 | L 1.76 | W 1.86 | T 2.27 | H 1.84 | M 1.81
